{
  "source": "the DeepSol protein solubility set",
  "data": [
    {"assay": "soluble on expression in E. coli; label from the status in PepcDB or PDB records", "values": [
      {"sequence": "MDRLSYAIGDKAVLNNIRVQFQPGSVTALLGPNGAGKSTLLKALCQEIPSAQGSIKLGHCQLVDWPRAELAKSLAVLPQHASLTFPFTVDEVVAMGLYPLTLSQKEGQQLVTKWLAEVGVLHLARRSYPTLSGGEKQRVQLARVLTQLSQSPFPPILLLDEPTSALDLAQQHKVLALAKNLAHKHAYTVIVVLHDLNQAARYSDRVIVLKQGEIVSEGTPNDALSIDIIRQVWDYEPEFIPAPQGDYPLIF", "soluble on expression in E. coli": "not soluble"},
      {"sequence": "MSMDIVMKSDEQPFISAPVCFKTFAFFAKASAEECKLLASGSNARESFQQATGLSEKITEDIYRQIDVSHISSMVFNREMDGGIERNRLGSQAILLDENSRRRNPQFKSIALRSLRYDHIDHRALARKSPHLMPPTYIKEEIMDDELDEVKEEEVSVGEAALPTAKVELNMDHPEKDLIISTSVYLGYTRTLQYHEIRLGRLMKVTDRLELTGDHTLRDLKNAFSCPIDFSFSDDFSEKKPSFKDMAKNKWPSSMFFIHDTFYIDSNTGDQFVDPSITIRTWAKKFDYIGPMHVKQMSETRIGDLICRLGQPYVYIHQGVCEHLIVFNDLCLRDESHTNVEFPRRLVERNFRRIACDTCKEASAHWMIVDHDNLLPNSPGYLCSSCYKEFCFDVNGNKVCQFKAVPYCDRKDIGDGRQFFTELDL", "soluble on expression in E. coli": "not soluble"},
      {"sequence": "MGAYLNKPIIEKEKEEGSGNGLSYACTTMQGWRVNQEDAHNCVVDLHTDWHMFGVYDGHGGTEVSKFTSAKLPDFLKERKFWEADDVAECLQKAFVDFDDFIRAEESMKELKDIGDEGKPKKAGGEADSEDEADRIDTIEEASVPLAELLKRYGGAGVGKSLLSAFLAKGDVSDDSEDEDEDEEEAEEQDDTEEKKENEDASAEVVIENAEDKEEEEGSPKKKGQKRCQKSPIQSEAKKSKSETDAETAPSSSSGVDGVATEEEDEDDSDKEFVADEEEDDEDAEDEQSDEEMVDGSLAPLLLGSGGAEVPGEDSGTTACVCLVGKDKVIVANAGDSRAVLCRNGKAVDLSVDHKPEDEVETNRIHAAGGQIEDGRVNGGLNLSRAFGDHAYKKNQELGLKEQMITALPDVKIEALTPEDEFIVVACDGIWNSMESQQVVDFVRDLLAKGSSCAEVCDALCDACLADSTDGDGTGCDNMTVICTTFDRKSK", "soluble on expression in E. coli": "not soluble"},
      {"sequence": "SMTEEQPVASWALSFERLLQDPLGLAYFTEFLKKEFSAENVTFWKACERFQQIPASDTQQLAQEARNIYQEFLSSQALSPVNIDRQAWLGEEVLAEPRPDMFRAQQLQIFNLMKFDSYARFVKSPLYRECLLAEAEGRPLREPGSSRLGSPDAT", "soluble on expression in E. coli": "soluble"},
      {"sequence": "MGSDKIHHHHHHMLIAQVTDIHLGFEPDSPDEFNRQRLDRVLAELAAMDPRPDLLLATGDLIDRGDRESYERLRDAFSNLPFPVHYALGNHDERETFSAVFPEAAFTDGFLQYIVDAGPLRIIVLDTLEEGRHGGAFCDVRARWLKARLDEAPDTRTLIVQHHPPVEVGIAWMNTDPAEPWVERLGQCLRGRTNVVGVVCGHIHRAITTAWEGTVVATCPSTAPQVALDLRPIDPDVPDQRNLIIADPPGYALHWFNGRELITHWDTAEDHQVLARYDANLQGMIQHMLAERPGAQAAE", "soluble on expression in E. coli": "not soluble"},
      {"sequence": "MSRTAKPQNGRRRFLRDVVRTAGGLAAVGVALGLQQQTARASGVRLRPPGALNENVFASACVRCGQCVQACPYDTLKLATLASGLSAGTPYFVARDIPCEMCEDIPCAKVCPSGALNKDIASIDDSRMGLAVLLDQENCLNFQGLRCDVCYRECPKIDEAITLELDRNMRTGKHARFLPTVHSDACTGCGKCEKVCVLEQPAIKVLPLSLAKGELGHHYRFGWLEGKDGKS", "soluble on expression in E. coli": "not soluble"},
      {"sequence": "MTQAEIKLCSLLLQEHFGEIVEKIGVHLIRTGSQPLRVIAHDTGTSLDQVKKALCVLVQHNLVSYQVHKRGVVEYEAQCSRVLRMLRYPRYIYTTKTLYSDTGELIVEELLLNGKLTMSAVVKKVADRLTETMEDGKTMDYAEVSNTFVRLADTHFVQRCPSVPTTENSDPGPPPPAPTLVINEKDMYLVPKLSLIGKGKRRRSSDEDAAGEPKAKRPKYTTDNKEPIPDDGIYWQANLDRFHQHFRDQAIVSAVANRMDQTSSEIVRTMLRMSEITTSSSAPFTQPLSSNEIFRSLPVGYNISKQVLDQYLTLLADDPLEFVGKSGDSGGGMYVINLHKALASLATATLKSVVQERFGSRCARIFRLVLQKKHIEQKQVEDFAMIPAKEAKDMLYKMLSENFMSLQVGCQ", "soluble on expression in E. coli": "not soluble"},
      {"sequence": "MNNTVKTDGDSVSGRDLPITKISEDRFERSAYSAQLANIICDVAPWGASTVFSLTGQWGSGKTSLVNLIRSEESLSNEKWTIVDFNPWVASDPQSLIEEFYRVIVGTVPDDKTGQKIKTVLQKTFSTIGSIAGGVGGFGVLEALALSKGVDAANAVYKTWKQEQDSWPTLYTRAANHFKDLNKRILIVVDDIDRLHTDELALLMKVIRLLGRFPQVNYLLVYEEESLLTTLARSTAVGGSEDDALRFMEKIVQYPFDVPPLTSFQIEKELSALFDKLFQGVSLSGDPEDFALVKSRMFDVWEKTLVTPRLLHRFAALLTNWTRIYGSGEVNGVDLTILATIRIVFPSVYKRLSRAKEVLLQGGRTTGLEHHHHHH", "soluble on expression in E. coli": "soluble"},
      {"sequence": "ILPQPDVRVNQVGYLPEGKKVATVVCNSTQPVKWQLKNAAGVVVLEGYTEPKGLDKDSQDYVHWLDFSDFATEGIGYYFELPTVNSPTNYSHPFDIRKDIYTQMKYDALAFFYHKRSGIPIEMPYAGGEQWTRPAGHIGIEPNKGDTNVPTWPQDDEYAGIPQKNYTKDVTGGWYDAGDHGKYVVNGGIAVWTLMNMYERAKIRGLDNWGPYRDGGMNIPEQNNGYPDILDEARWEIEFFKKMQVTEKEDPSIAGMVHHKIHDFRWTALGMLPHEDPQPRYLRPVSTAATLNFAATLAQSARLWKDYDPTFAADCLEKAEIAWQAALKHPDIYAEYTPGSGGPGGGPYNDDYVGDEFYWAACELYVTTGKDEYKNYLMNSPHYLEMPAKMGENGGANGEDNGLWGCFTWGTTQGLGTITLALVENGLPATDIQKARNNIAKAADRWLENIEEQGYRLPIKQAEDERGGYPWGSNSFILNQMIVMGYAYDFTGDSKYLDGMFDGISYLLGRNAMDQSYVTGYGERPLQNPHDRFWTPQTSKRFPAPPPGIISGGPNSRFEDPTINAAVKKDTPPQKCFIDHTDSWSTNEITVNWNAPFAWVTAYLDQYTD", "soluble on expression in E. coli": "soluble"},
      {"sequence": "MGSDKIHHHHHHMSIAIRRDEEIALSCHGVSKSFVISGEQNIWRMFCALPVRGEVFAALRDVSLEVPRGKIVGILGRNGAGKSTLLRVLGGVYQPTSGTVDVHGQVCGLFEMGGFGNRELSGREYATRYLTVMGAPRKDRGDLLADIAEFSELGADFDRKILTYSAGMAARLYFSTATAMRHEIYLIDELLSVGDEHFQAKCWIRMRNLLLNGASGILVTHDWVSTLKLCQQSHILERGSIVASGRTDAAVVKYLDLPVPDGALARFCDSDRATWHAVAGEDAVFEFDIESEEDIPLVFTYSVELMRIGIGWDIMLLGQRPIGSGNGRRRVQLKVPALPLAPGEYSLTVGLIKEKTRAEDEAVICDARGWTTGNGYVLEVSGTLEQGTTILPMEISGWIDD", "soluble on expression in E. coli": "not soluble"},
      {"sequence": "MDFLARATAIVGNTMVLMRRFGSPGTQAIGQSPAIPEAQKQGIMTLKMPAAKGWAPGHLPTPAPGLKVNAFARDLEHPRWIEVLPSGDVLVAEARQLPTPPKTLLDRAAQATMRRIRALGDSPNRITLLRDPDGRGEAQERETFLENQSQPFGMALVGDTFYVGNTDGIMAFPYRPGATRLEGPGRRLTTFKPGGHWTRSLIVSPDGRRIYAGVGSLSNIGDDGMEAEEGRAAIWELDLASGQARIYASGLRNPVGLAWEPTTRVLWTVVNERDGLGDETPPDYLTSVEEDGFYGWPYCYWNRIVDDRVPQDPAMVARAITPDYALGGHTASLGLCWVPAGTLPGFGDGMAIGQHGSWNRSKLSGYRLIFVPFANGRPSGPPRDILTGFLSDDEKLAYGRPVGVAVGPDRRSLLLADDVGDVIWRVTGALEHHHHHH", "soluble on expression in E. coli": "not soluble"},
      {"sequence": "SLFITDKRVKESATALNPSMFQGLYLQDQMLKDPTYLPIYGSSELSRLDEFHPSNYFQVNNEGFTPYLVGKGGSQSLIHSLNFAAHMDQLKGKKIVFIVSPQWFIKRGSDEQHFAPNYSALQGLDLAFNDQIDPEIKKKMMKRMLRFKAVQNDAILSELYKAMVNGQTWKVNALKPAAKVYYSMLEKKDLYYSTTESSGPKRYISQSVKDKSWSELNKLADQSGKRHSGSNDFHIDNPVYKKLKPKVPKLKGKNKGRSYAVSPEYGDFEMMLDILKDAGAEPMFVTIPVNGKWYDYTGFPKKGRTDYYKKVNKQIRAKGFQVADFSGHEYDPYFMKDTIHIGWKGWVYVDKAIDEFYKTGKVTSS", "soluble on expression in E. coli": "soluble"},
      {"sequence": "TQNPIANPLAAKKRRDHVLERLLEEHYINEEQYQNAVNQPITAKYHGTNIKVKAPYVAEMIRQSLYDNFGPEAYTKGY", "soluble on expression in E. coli": "not soluble"},
      {"sequence": "MAHHHHHHMDARVHRSKRGCGRVLKRSRASSPEVVAEVGTGRPGDPFVLPLRSSPNGSGCHHCPEHSCDCLYVSKELERCYLSLQVSRQVTCKGRRELCAKSVLPPFVARLLRVANVTADDTFYDLGCGNGSVLFHVALATGASCVGVEINEHNAKVAKEAWTHLRPVFEKRRGRKLDVSIVCGDFCKVLKQDNYFSSSCVVWIANLLMPRFVNHYLSERLRSLPIGSRVLCMEDLYPHSRSVAAARDPDAFEKFEMVDYRWQEDSVEWSPASGPFYLYIKRS", "soluble on expression in E. coli": "not soluble"},
      {"sequence": "QHQEAGAGDLCALCGEHLYVLERLCVNGHFFHRSCFRCHTCEATLWPGGYEQHPGDGHFYCLQHLPQTD", "soluble on expression in E. coli": "soluble"},
      {"sequence": "MLNITEDEIDSISLLNNPLKDPSKRSIIIIDHSRNDRSPILIGLQGFFGTNRSFMNRYFNKVDFISVLEKIAEKAENDGFIIALPDTMTSLYGNQYINSPAVGNYEDFIVSDVLEYLFKRYGKRPVGLFGKSSGGFGAYTLAVRHPDKISGFVDVAGDSGFEYCYLPDFPAAIKYFRRYGVLEWYTYVKSKMNMSPEDMKVVNVLAMSAFYSPDQEAEMGIGLPFDTRTGLLKYDVWDKWRRLDPAFNISNNIDVLKDMAVFMQVGSRDDFHIDIGMEAMHNFLEKNGIVHFFETYDETHFDLDYLYLKSLPLLIELISD", "soluble on expression in E. coli": "not soluble"},
      {"sequence": "MAPSKSKEKKEKAKTSRRKSGSQTKKDTTSTVSEGKSPTEVADQLLKAKSRPQMYDLLKGHAAFNVPEFVKNLPVNVRLPIPIRDNRRVLCGSDEEFFPGQYVRMEGAEYIIVQAPTKKSSKLIWRVILKDHIRILVCLCHDEQMSGSDDGKCYTYFPTELEQKMEAELMKGTLSIVCKAREGLSMGATKYELELTDSEVVIDKNSDDPNASNYKSHRLIVFHMNTWSGQKPTSGNALEQAQNVALFFREVKKFEMDILRKSMENFVPPVMLQSFDGINRASTGWVALMLLRDVEKRECFDVPSLIKAIMKFRNGSISTYYQFCFCMAVCLNIGKHTNWCANDCSTALTDLMEKFGNRKLNELGNLAV", "soluble on expression in E. coli": "not soluble"},
      {"sequence": "MAHHHHHHMAHVLQKCAHVLGISLSATGVYYAKGKMPYPATSSNEGTSSAESMGGSPGKAAKSNTVSAVKESQAATRKSKAQGNSVATAAVHTPSPPSSTEMNATNLDATSPCSSAAGPVGFFFDVGLHDLPNPPRDFDVTPSALAVDGTHSSANGAVIAVRDFVSHIPPFFVPVTEVVANMPGYTAEHLEVYLNVNSLELVTVAGERYVRLYGSFGDLSLSGSEVSEKRYAHYRPDVALVAAFEAAFEGIYDKWMPLPELLRRVGPDVTAQLPYQGPAAITYFAQMQHRFAFAVREVPTTGGGAAGALSSPQFTTEAAVLLRKPGYSGLEAHSTPTPKSFQALMSLVPGDTQVDIDVVRCQLTSEVRAELSRYYDGLEGFFAAHKPVFFVPPETPTVVMRMRYRLRTQRAKLPLEEQLRIATDARDKARIRSLRRKIAFRDDPSHPLHDPENLAKEVSKHLPRRGFVHLRIFLKRNVPEELLMYMPKRMRCFFNNYPQYFTQFEYQSAGTWCLCRPDQPLPRGVIRQNFSDGDLLRLIAEFLQQRGARAASMVHTNLPFGAQEVIRRRYGGVYFFVTRYPQYFNVVLKTDRQNVKSSAVVHLIQVPSQELSDATMAASAASLNNPNAPSHDDDDHESGDDDDDEDLDDGLD", "soluble on expression in E. coli": "not soluble"}
    ]}
  ]
}
